Test results from US20200377590A1 (Hoffmann-La Roche, published 2020).
Numbering of substitutions follows the chain as printed.

T1: CD81 (UniProt P60033 1-236, limits assumed)
T1 construct: whole, on cells; also called CD81 receptor
T1 sequence (looked up): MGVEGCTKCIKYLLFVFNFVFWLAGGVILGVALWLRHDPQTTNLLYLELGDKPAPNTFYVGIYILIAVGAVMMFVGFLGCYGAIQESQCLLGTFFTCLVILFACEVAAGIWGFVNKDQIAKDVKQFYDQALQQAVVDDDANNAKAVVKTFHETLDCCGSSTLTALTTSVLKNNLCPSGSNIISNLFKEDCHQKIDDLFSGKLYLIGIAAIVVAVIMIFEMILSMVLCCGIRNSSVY

B1: CD81K04 HC GG-04-hVH_1_69 / LC JA_GG-09-hVK_4_1 (antibody, V domains shown)
VH: QVQLVQSGAEVKKPGSSVKVSCKASGYTFSSSWMNWVRQAPGQGLEWMGRIYSGDGDAIYNQKFQGRATITADESTSTAYMELSSLRSEDTAVYYCAREGKTGDLLLRSWGQGTLVTVSS
VL: DIVMTQSPDSLAVSLGERATINCKSSKSVSTSIYSYMHWYQQKPGQPPKLLIKYASTRESGVPDRFSGSGSGTDFTLTISSLQAEDVAVYYCEHSREFPFTFGQGTKLEIK
notes: human constant region
B2: CD81K04 HC JA_GG-14-hVH_1_69 / LC JA_GG-09-hVK_4_1 (antibody, V domains shown)
VH: B1 VH with Q62G, Q65K, R67K
VL: B1 VL
notes: human constant region
B3: CD81K04 HC JA_GG-14-hVH_1_69 / LC GG-02-hVK_4_1 (antibody, V domains shown)
VH: B1 VH with Q62G, Q65K, R67K
VL: B1 VL with K53Y, T57Y, E93Q
notes: human constant region
B4: CD81K04 HC JA_GG-14-hVH_1_3 / LC JA_GG-08-hVK_4_1 (antibody, V domains shown)
VH: B1 VH with S16A, Q62G, Q65K, E74T, T76A
VL: B1 VL with T57Y, R58L
notes: human constant region
B5: CD81K04 HC JA_GG-14-hVH_1_69 / LC JA_GG-08-hVK_4_1 (antibody, V domains shown)
VH: B1 VH with Q62G, Q65K, R67K
VL: B1 VL with T57Y, R58L
notes: human constant region
B6: CD81K04 HC JA_GG-14-hVH_1_69 / LC JA_GG-10-hVK_4_1 (antibody, V domains shown)
VH: B1 VH with Q62G, Q65K, R67K
VL: B1 VL with K24R, S25A, T57Y, R58L
notes: human constant region
B7: CD81K04 HC JA_GG-16-hVH_1_3 / LC JA_GG-10-hVK_4_1 (antibody, V domains shown)
VH: B1 VH with S16A, Q62G, Q65K, A68V, E74T, T76A
VL: B1 VL with K24R, S25A, T57Y, R58L
notes: human constant region
B8: CD81K04 HC JA_GG-15-hVH_1_3 / LC JA_GG-09-hVK_4_1 (antibody, V domains shown)
VH: B1 VH with S16A, G44R, Q62G, Q65K, A68V, E74T, T76A
VL: B1 VL
notes: human constant region
B9: CD81K04 HC K04_JA_GG-17-hVH_1_3 / LC GG-02-hVK_4_1 (antibody, V domains shown)
VH: B1 VH with S16A, G44R, A58T, N61S, A68V, E74T, T76A
VL: B1 VL with K53Y, T57Y, E93Q
notes: human constant region
B10: CD81K04 HC JA_GG-13-hVH_1_69 / LC JA_GG-10-hVK_4_1 (antibody, V domains shown)
VH: B1 VH with Y27G, N61A, A68V
VL: B1 VL with K24R, S25A, T57Y, R58L
notes: human constant region
B11: CD81K04 HC JA_GG-14-hVH_1_69 / LC GG-03-hVK_4_1 (antibody, V domains shown)
VH: B1 VH with Q62G, Q65K, R67K
VL: B1 VL with M37L, H38A, K53Y, T57Y, E93Q
notes: human constant region
B12: CD81K04 HC GG-05-hVH_1_18 / LC JA_GG-08-hVK_4_1 (antibody, V domains shown)
VH: B1 VH with S16A, N61A, F64L, A68V, I70M, A72T, E74T, S84R, E89D
VL: B1 VL with T57Y, R58L
notes: human constant region
B13: CD81K04 HC JA_GG-14-hVH_1_69-GA / LC JA_GG-10-hVK_4_1 (antibody, V domains shown)
VH: B1 VH with Q62G, Q65K, R67K
VL: B1 VL with K24R, S25A, T57Y, R58L
notes: human constant region
B14: CD81K04 HC JA_GG-14-hVH_1_3 / LC JA_GG-09-hVK_4_1 (antibody, V domains shown)
VH: B1 VH with S16A, Q62G, Q65K, E74T, T76A
VL: B1 VL
notes: human constant region
B15: CD81K04 HC JA_GG-14-hVH_1_3 / LC GG-03-hVK_4_1 (antibody, V domains shown)
VH: B1 VH with S16A, Q62G, Q65K, E74T, T76A
VL: B1 VL with M37L, H38A, K53Y, T57Y, E93Q
notes: human constant region
B16: CD81K04 HC GG-04-hVH_1_69 / LC JA_GG-10-hVK_4_1 (antibody, V domains shown)
VH: B1 VH
VL: B1 VL with K24R, S25A, T57Y, R58L
notes: human constant region
B17: CD81K04 HC JA_GG-16-hVH_1_3 / LC JA_GG-09-hVK_4_1 (antibody, V domains shown)
VH: B1 VH with S16A, Q62G, Q65K, A68V, E74T, T76A
VL: B1 VL
notes: human constant region
B18: CD81K04 HC JA_GG-15-hVH_1_3 / LC JA_GG-08-hVK_4_1 (antibody, V domains shown)
VH: B1 VH with S16A, G44R, Q62G, Q65K, A68V, E74T, T76A
VL: B1 VL with T57Y, R58L
notes: human constant region
B19: CD81K04 HC GG-05-hVH_1_18 / LC GG-02-hVK_4_1 (antibody, V domains shown)
VH: B1 VH with S16A, N61A, F64L, A68V, I70M, A72T, E74T, S84R, E89D
VL: B1 VL with K53Y, T57Y, E93Q
notes: human constant region
B20: CD81K04 HC K04_JA-13-hVH_1_3 / LC GG-04-hVK_4_1 (antibody, V domains shown)
VH: B1 VH with S16A, G44R, Q62G, Q65K, A68V, A72R, E74T, T76A
VL: B1 VL with M37L, H38A, K53Y, E93Q, F100Y
notes: human constant region
B21: CD81K04 HC JA_GG-14-hVH_1_69-GA / LC GG-03-hVK_4_1 (antibody, V domains shown)
VH: B1 VH with Q62G, Q65K, R67K
VL: B1 VL with M37L, H38A, K53Y, T57Y, E93Q
notes: human constant region
B22: CD81K04 HC JA_GG-16-hVH_1_3 / LC GG-02-hVK_4_1 (antibody, V domains shown)
VH: B1 VH with S16A, Q62G, Q65K, A68V, E74T, T76A
VL: B1 VL with K53Y, T57Y, E93Q
notes: human constant region
B23: CD81K04 HC JA_GG-15-hVH_1_3 / LC JA_GG-10-hVK_4_1 (antibody, V domains shown)
VH: B1 VH with S16A, G44R, Q62G, Q65K, A68V, E74T, T76A
VL: B1 VL with K24R, S25A, T57Y, R58L
notes: human constant region

What follows are binders tested against T1, CD81 (assay: cell ELISA;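 also: antibody binding to HuH7 cells expressing CD81 versus a CD81-negative HuH7 control line, bound antibody detected by secondary reagent, absorbance at 450 nm with 620 nm reference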).
Method: For the binding cell ELISA assay, HuH7-Rluc-H3 (positive cell line expressing CD81) and HuH7-Rluc-L1 (negative control cell line) were propagated in F-12 DMEM medium with 10% FCS at 37° C. and 5% CO₂. On day 1, the cells were trypsinized at approximately 90% confluence and resuspended at 4×10⁵ cells/mL. […] On day 2, the antibody samples to be tested were prepared in a separate polypropylene round bottom plate with a twofold desired concentration with a final volume of 120 μl. All of the assay samples were diluted in cell culture medium. […] After fixation, each well was washed 3 times with 200 μL PBS/0.05% Tween. The secondary incubation step for detection of bound anti-CD81 antibodies was performed for 2 h at room temperature on a reciprocal shaker. […] Each well was washed three times with 200 μL PBS/0.05% Tween to remove unbound antibodies. […] The absorbance was read using the ELISA Tecan reader at 450 nm with 620 nm reference wavelength.

ELISA data | Binder
0.918 | B1
0.913 | B2
0.235 | B3
0.953 | B4
0.835 | B5
0.77 | B6
0.88 | B7
0.936 | B8
0.709 | B9
0.613 | B10
0.26 | B11
0.881 | B12
0.733 | B13
0.975 | B14
0.518 | B15
0.762 | B16
1.08 | B17
0.993 | B18
0.664 | B19
0.152 | B20
0.243 | B21
0.596 | B22
0.915 | B23
